According to patent US20050038228A1:
Positions count from the first letter of the chain named.

How the values were obtained:
[1] = biological target: rheumatoid factor in serum of rheumatism patients (human); test: batch adsorption with γ-sterilized adsorbent: 100 µL adsorbent with 600 µL rheumatism patient serum, 37° C., 2 h; rheumatoid factor depletion from the supernatant
[2] = biological target: IgG in healthy human serum (human); test: batch adsorption as in Example 7 with γ-sterilized adsorbent and healthy human serum; IgG depletion from the supernatant
[3] = biological target: anti-β1 adrenoceptor antibody in serum of patients with dilated cardiomyopathy (human); test: batch adsorption with γ-sterilized adsorbent and dilated cardiomyopathy patient serum; antibody left in the supernatant measured by ELISA on the β1-adrenoceptor second loop peptide
[4] = biological target: immune complex prepared by heating a human IgG solution (10 mg/mL) at 63° C. for 15 minutes (human); test: batch adsorption after γ-ray sterilization (25 kGy) from healthy human serum spiked with immune complex (20 µg/mL); supernatant measured with a C1q-CIC kit
[5] = biological target: immune complex prepared by heating a human IgG solution (10 mg/mL) at 63° C. for 15 minutes (human); test: batch adsorption from healthy human serum spiked with immune complex (20 µg/mL); supernatant measured with a C1q-CIC kit
[6] = biological target: IgG in healthy human serum (human); test: batch adsorption: 100 µL adsorbent with 300 µL healthy human serum, 37° C., 2 h; IgG depletion from the supernatant against a saline control
[7] = biological target: IgG in healthy human serum (human); test: batch adsorption after γ-ray sterilization (25 kGy): 100 µL adsorbent with 300 µL healthy human serum, 37° C., 2 h; IgG depletion from the supernatant

B1: MG56 peptide (peptide)
peptide: MTTYKLVINGKTLKGETTTKAVDAETAEKAFKQYANDNGVDGVWTYDDATKTFTVTE
Adsorption ratio of rheumatoid factor (%) [1]: 34.4%

B2: C36 peptide (peptide)
peptide: MTTYKLVINGKTLKGETTTKAVDAETAERAFRQYATDNGVEGMWTYDPATKTFTVTEC
Adsorption ratio of IgG (%) [2]: 59.7%
Adsorption ratio of β1 adrenoceptor (%) [3]: 77.8%
Adsorption ratio of rheumatoid factor (%) [1]: 56.3%

B3: B04 peptide (peptide)
peptide: B2 peptide with Q33K, E41D
Adsorption ratio of an immune complex after sterilization (%) [4]: 91.6%
Adsorption ratio of an immune complex before sterilization (%) [5]: 92.4%

B4: CO4 peptide (peptide)
peptide: B2 peptide with Q33K, T36N, M43I
Adsorption ratio of IgG before sterilization (%) [6]: 97.1%
Adsorption ratio of IgG after sterilization (%) [7]: 90.2%

B5: C15 peptide (peptide)
peptide: B2 peptide with T36N, M43L
Adsorption ratio of an immune complex after sterilization (%) [4]: 84.1%
Adsorption ratio of an immune complex before sterilization (%) [5]: 85.2%

B6: C24 peptide (peptide)
peptide: B2 peptide with Q33K, T36N, E41D
Adsorption ratio of an immune complex after sterilization (%) [4]: 80.5%
Adsorption ratio of an immune complex before sterilization (%) [5]: 81.5%
